Reference: patent US20230203146A1 (Boehringer Ingelheim, published 2023)
Read-outs that look alike come from different tables or passages of the source.

Legend:
[1] = molecular target: T1, N-terminally FLAG-tagged cynomolgus Ang2 (HEK293T conditioned medium) (cynomolgus, UniProt O15123 19-496 (human entry), limits assumed); assay: competition ELISA, FLAG-cAng2 on coated cTie2-Fc
T1 construct: may be a nucleotide entry; also called cAng2; FLAG-cAng2
T1 chain: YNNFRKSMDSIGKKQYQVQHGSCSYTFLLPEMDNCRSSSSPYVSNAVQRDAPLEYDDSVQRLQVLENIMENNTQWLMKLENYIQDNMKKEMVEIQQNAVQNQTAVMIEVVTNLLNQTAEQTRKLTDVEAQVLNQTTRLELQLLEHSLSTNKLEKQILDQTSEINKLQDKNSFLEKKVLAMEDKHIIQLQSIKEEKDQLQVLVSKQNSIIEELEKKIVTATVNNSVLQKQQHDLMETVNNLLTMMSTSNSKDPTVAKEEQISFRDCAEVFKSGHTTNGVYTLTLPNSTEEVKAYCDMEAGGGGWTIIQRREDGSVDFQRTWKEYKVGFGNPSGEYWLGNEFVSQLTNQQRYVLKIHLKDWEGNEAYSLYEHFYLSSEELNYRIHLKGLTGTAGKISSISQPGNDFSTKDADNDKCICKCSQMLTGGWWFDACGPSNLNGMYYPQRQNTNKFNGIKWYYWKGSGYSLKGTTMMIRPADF
Protocol: (§1) In brief, 2 μg/mL of recombinant mouse Tie2-Fc or cyno Tie2-Fc is coated overnight at 4° C. in a 96-well MaxiSorp plate (Nunc, Wiesbaden, Germany). Coated wells are blocked with a 1% casein solution.

[2] = molecular target: T2, N-terminally FLAG-tagged mouse Ang2 (HEK293T conditioned medium) (mouse, UniProt O35608 19-496); assay: competition ELISA, FLAG-mAng2 on coated mTie2-Fc
T2 construct: may be a nucleotide entry; also called mAng2; FLAG-mAng2
T2 sequence: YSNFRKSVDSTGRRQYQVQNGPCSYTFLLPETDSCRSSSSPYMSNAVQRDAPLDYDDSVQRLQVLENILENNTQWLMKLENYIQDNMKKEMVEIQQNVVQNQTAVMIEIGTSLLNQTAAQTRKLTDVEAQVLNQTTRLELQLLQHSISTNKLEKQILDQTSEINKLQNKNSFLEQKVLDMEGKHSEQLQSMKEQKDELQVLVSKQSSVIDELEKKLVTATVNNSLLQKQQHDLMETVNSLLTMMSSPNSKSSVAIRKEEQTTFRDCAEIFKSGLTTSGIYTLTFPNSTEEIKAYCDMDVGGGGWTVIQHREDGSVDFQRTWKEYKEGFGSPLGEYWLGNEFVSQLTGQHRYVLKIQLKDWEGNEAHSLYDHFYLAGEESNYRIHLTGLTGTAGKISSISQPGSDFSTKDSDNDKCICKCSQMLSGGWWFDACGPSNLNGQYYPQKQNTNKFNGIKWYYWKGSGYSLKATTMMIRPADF
Protocol: as §1

[3] = molecular target: T3, recombinant cynomolgus Ang2-FLD (cynomolgus); assay: SPR (Biacore T100), binder on CM5 chip, Ang2-FLD as analyte
T3 construct: domain: FLD; also called cyno Ang2-FLD
Protocol: (§2) In brief, VHH and benchmark compounds are immobilized on a CM5 chip via amine coupling. […] Ang2-FLD species are allowed to associate for 2 min and to dissociate for 20 min at a flow rate of 45 μL/min. In between injections, the surfaces are regenerated with a 10 sec pulse of 25 mM NaOH and 60 sec stabilization period. Association/dissociation data are evaluated by fitting a 1:1 interaction model (Langmuir binding). The affinity constant KD is calculated from resulting association and dissociation rate constants kₐ and kd and are depicted in Table 8.

[4] = molecular target: T4, recombinant human Ang2-FLD (human, UniProt O15123 275-496, limits assumed); assay: as above
T4 construct: domain: FLD; not used
T4 sequence (looked up): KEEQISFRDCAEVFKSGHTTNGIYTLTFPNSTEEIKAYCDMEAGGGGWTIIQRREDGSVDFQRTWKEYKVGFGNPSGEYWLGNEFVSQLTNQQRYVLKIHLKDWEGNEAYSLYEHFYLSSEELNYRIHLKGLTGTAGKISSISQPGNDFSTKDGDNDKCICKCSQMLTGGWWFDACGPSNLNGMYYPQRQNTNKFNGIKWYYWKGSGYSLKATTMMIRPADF
Protocol: as §2

[5] = molecular target: T5, recombinant mouse Ang2-FLD (mouse, UniProt O35608 275-496, limits assumed); assay: as above
T5 construct: domain: FLD
T5 sequence (looked up): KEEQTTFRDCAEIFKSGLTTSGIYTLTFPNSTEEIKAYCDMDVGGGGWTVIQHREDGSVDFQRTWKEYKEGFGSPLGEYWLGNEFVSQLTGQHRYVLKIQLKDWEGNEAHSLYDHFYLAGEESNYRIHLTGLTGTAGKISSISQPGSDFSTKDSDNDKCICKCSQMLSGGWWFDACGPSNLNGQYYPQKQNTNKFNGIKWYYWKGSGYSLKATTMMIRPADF
Protocol: as §2

[6] = molecular target: T6, FLAG-tagged recombinant human Ang1 (Alexis Biochemicals) (human, UniProt Q15389 20-498, limits assumed); assay: competition ELISA, periplasmic extract, FLAG-hAng1 on hTie2/Fc
T6 construct: Bought reagent; also called hAng1; FLAG-hAng1
T6 sequence (looked up): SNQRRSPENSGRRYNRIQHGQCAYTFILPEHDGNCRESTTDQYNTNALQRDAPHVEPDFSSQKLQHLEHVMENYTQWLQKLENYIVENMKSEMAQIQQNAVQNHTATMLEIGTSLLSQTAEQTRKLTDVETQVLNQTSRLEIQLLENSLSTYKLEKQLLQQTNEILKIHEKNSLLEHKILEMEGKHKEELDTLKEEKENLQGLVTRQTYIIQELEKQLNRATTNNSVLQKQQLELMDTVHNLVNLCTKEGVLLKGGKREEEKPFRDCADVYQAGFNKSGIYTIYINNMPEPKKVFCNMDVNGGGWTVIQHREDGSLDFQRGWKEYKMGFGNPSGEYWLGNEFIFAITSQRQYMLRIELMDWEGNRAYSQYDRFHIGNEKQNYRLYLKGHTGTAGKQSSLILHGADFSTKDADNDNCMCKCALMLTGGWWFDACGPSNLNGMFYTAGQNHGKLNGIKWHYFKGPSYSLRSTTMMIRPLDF
Protocol: (§3) In brief, human Tie2/Fc chimera (R&D Systems, Minneapolis, Minn., USA) is biotinylated using N-hydroxysulfosuccinimide ester of biotin (Thermo Fisher Scientific, Rockford, Ill., USA). […] To this mixture, the Acceptor beads and 0.3 nM biotinylated human Tie2/Fc chimeras are added and further incubated for 2 hours at room temperature. Finally, streptavidin conjugated Donor beads (Perkin Elmer, Waltham, Mass., US) are added and the mixture is incubated for an additional 2 hours at room temperature. Assay buffer is PBS+0.03% Tween-20+0.1% BSA. Fluorescence is measured using the Envision Multilabel Plate reader (Perkin Elmer, Waltham, Mass., USA) using an excitation wavelength of 680 nm and an emission wavelength of 520 nm. […] In brief, human or mouse Tie2/Fc chimera (R&D Systems, Minneapolis, Minn., USA) are immobilized at 2 μg/mL overnight at 4° C. in a 96-well MaxiSorp plate (Nunc, Wiesbaden, Germany). Wells are blocked with a 1% casein solution. […] This mixture is added to the Tie2/Fc coated well and incubated for 2 hours at room temperature. Residual binding of Ang is detected using HRP-conjugated anti-FLAG M2 antibody (Sigma, St Louis, Mo., USA).

[7] = molecular target: T2, N-terminally FLAG-tagged mouse Ang2 …; assay: competition ELISA, periplasmic extract, FLAG-mAng2 on mTie2/Fc
Protocol: as §3

[8] = molecular target: T6, FLAG-tagged recombinant human Ang1 …; assay: ratio of IC50 in hAng1/hTie2 ELISA to IC50 in hAng2/hTie2 ELISA
Protocol: In brief, 2 μg/mL of Tie2/Fc chimera (R&D Systems, Minneapolis, Minn., USA) is coated in a 96-well MaxiSorp plate (Nunc, Wiesbaden, Germany).
In brief, 2 μg/mL of recombinant human Tie2-Fc (R&D Systems, Minneapolis, Minn., USA) is coated overnight at 4° C. in a 96-well MaxiSorp plate (Nunc, Wiesbaden, Germany). Coated wells are blocked with a 1% casein solution.

[9] = molecular target: T7, FLAG-tagged cynomolgus Ang2 (cynomolgus, UniProt O15123 19-496 (human entry), limits assumed); assay: competition ELISA: FLAG-cAng2 binding to coated cTie2-Fc
T7 construct: N-terminally FLAG-tagged, conditioned medium of HEK293T cells; also called cAng2; FLAG-cAng2
T7 chain: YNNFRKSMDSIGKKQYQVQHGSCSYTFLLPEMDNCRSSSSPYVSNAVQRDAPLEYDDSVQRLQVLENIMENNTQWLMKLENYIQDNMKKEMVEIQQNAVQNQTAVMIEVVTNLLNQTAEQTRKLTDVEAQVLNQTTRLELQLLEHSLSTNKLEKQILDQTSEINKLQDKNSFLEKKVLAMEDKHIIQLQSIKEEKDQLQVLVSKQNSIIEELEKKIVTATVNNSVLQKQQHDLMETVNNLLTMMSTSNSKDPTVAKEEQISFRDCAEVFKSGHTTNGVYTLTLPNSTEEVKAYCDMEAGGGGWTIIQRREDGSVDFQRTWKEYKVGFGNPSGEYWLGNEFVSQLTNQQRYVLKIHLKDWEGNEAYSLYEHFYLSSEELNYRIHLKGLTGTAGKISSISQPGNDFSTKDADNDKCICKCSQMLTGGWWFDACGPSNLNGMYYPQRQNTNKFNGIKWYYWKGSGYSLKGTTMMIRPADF

[10] = molecular target: T8, FLAG-tagged mouse Ang2 (mouse, UniProt O35608 19-496); assay: competition ELISA: FLAG-mAng2 binding to coated mTie2-Fc
T8 construct: N-terminally FLAG-tagged, conditioned medium of HEK293T cells; also called mAng2; FLAG-mAng2
T8 sequence: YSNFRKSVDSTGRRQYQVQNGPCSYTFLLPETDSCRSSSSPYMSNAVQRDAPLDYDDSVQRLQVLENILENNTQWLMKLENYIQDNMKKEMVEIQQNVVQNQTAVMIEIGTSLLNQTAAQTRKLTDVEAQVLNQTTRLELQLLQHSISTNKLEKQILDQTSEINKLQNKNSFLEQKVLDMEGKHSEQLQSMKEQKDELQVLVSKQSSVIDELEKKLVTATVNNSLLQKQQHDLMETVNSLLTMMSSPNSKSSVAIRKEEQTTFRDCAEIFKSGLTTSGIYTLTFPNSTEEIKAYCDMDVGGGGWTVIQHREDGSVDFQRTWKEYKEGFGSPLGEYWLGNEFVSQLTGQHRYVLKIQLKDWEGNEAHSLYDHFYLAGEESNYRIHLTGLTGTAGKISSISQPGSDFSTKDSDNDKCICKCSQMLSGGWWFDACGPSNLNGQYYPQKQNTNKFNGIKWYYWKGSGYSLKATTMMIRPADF
Protocol: as §1

[11] = molecular target: T7, FLAG-tagged cynomolgus Ang2; assay: competition ELISA: FLAG-cAng2 binding to coated cTie2-Fc
Protocol: as §1

[12] = molecular target: T8, FLAG-tagged mouse Ang2; assay: competition ELISA: FLAG-mAng2 binding to coated mTie2-Fc; remark: listed apart in the source
Protocol: as §1

[13] = molecular target: T7, FLAG-tagged cynomolgus Ang2; assay: competition ELISA: FLAG-cAng2 binding to coated cTie2-Fc
Protocol: as §1

[14] = molecular target: T8, FLAG-tagged mouse Ang2; assay: competition ELISA: FLAG-mAng2 binding to coated mTie2-Fc; remark: listed apart in the source
Protocol: as §1

B1: VHH 28D10 (VHH)
VHH: EVQLVESGGGLVQAGGSLRLSCAASGFTLDDYAIGWFRQAPGKEREGVSCIRDSDGSTYYADSVKGRFTISSDNDKNTVYLQMNSLKPEDTAVYYCAAVPAGRLRFGEQWYPLYEYDAWGQGTQVTVSS
notes: also called 028D10; not shown: C-terminal c-myc tag and His6 tag
Question: B1 was tested. Which IC50 [1] did it give?
Answer: Its IC50 is 2 nM.

Question: And the IC50 [2]?
Answer: Its IC50 is 6.1 nM.

Question: What about the Kd [3] of the same binder?
Answer: The Kd was 1.4 nM.

Question: And the koff [3]?
Answer: The koff was 0.025 s⁻¹.

Question: And the kon [3]?
Answer: Its kon is 1.8e+07 M⁻¹ s⁻¹.

Question: And the Kd [4]?
Answer: The Kd was 1.3 nM.

Question: What about the koff [4] of the same binder?
Answer: The koff was 0.0062 s⁻¹.

Question: And the kon [4]?
Answer: Its kon is 4.9e+06 M⁻¹ s⁻¹.

Question: What about the Kd [5] of the same binder?
Answer: Its Kd is 5.6 nM.

Question: What about the koff [5] of the same binder?
Answer: The koff was 0.011 s⁻¹.

Question: What about the kon [5] of the same binder?
Answer: The kon was 1.9e+06 M⁻¹ s⁻¹.

Question: And the “% inh” value [6]?
Answer: Its value is 4%.

Question: And the “% inh” value [7]?
Answer: Its value is 93%.

Question: And the hAng1/hAng2 ratio [8]?
Answer: The hAng1/hAng2 ratio was greater than 3080.

B2: VHH 00027 (VHH, not shown: small tags and cut ends)
VHH: EVQLVESGGGLVQAGGSLRLSCAASGFTLDDYAIGWFRQAPGKEREGVSSIRDNDGSTYYADSVKGRFTISSDNDKNTVYLQMNSLKPEDTAVYYCAAVPAGRLRFGEQWYPLYEYDAWGQGTLVTVSS
notes: Variant of 28D10 carrying C50S/S53N and Q108L
Question: For B2, which IC50 [9] is on record?
Answer: Its IC50 is 0.728 nM.

Question: And the IC50 [10]?
Answer: The IC50 was 1.98 nM.

Question: What about the IC50 [11] of the same binder?
Answer: Its IC50 is 0.7 nM.

Question: And the IC50 [12]?
Answer: The IC50 was 2 nM.

Question: What about the IC50 [13] of the same binder?
Answer: Its IC50 is 0.728 nM.

Question: And the IC50 [14]?
Answer: The IC50 was 1.98 nM.

B3: VHH 00908 (VHH, not shown: small tags and cut ends)
VHH: EVQLVESGGGLVQPGGSLRLSCAASGITLDDYAIGWFRQAPGKEREGVSSIRDNGGSTYYADSVKGRFTISSDNSKNTVYLQMNSLRPEDTAVYYCAAVPAGRLRYGEQWYPIYEYDAWGQGTLVTVSS
Question: What does the source list for B3?
Answer: IC50 [9]: 0.079 nM; IC50 [10]: 0.085 nM; IC50 [13]: 0.079 nM; IC50 [14]: 0.085 nM
